Blank lines part the entries; values can stand above or below the binder they belong to.
How the values were obtained:
human serum albumin [1] = target: T1, human serum albumin (human, UniProt P02768 25-609); assay: SPR, BIAcore 3000, HSA on CM5 chip
T1 construct: also called HSA
Experimental: For this purpose, the fusion proteins were expressed in E. coli TG1 cells. […] Coating of the chip (CM5) was performed by amine coupling using NHS/EDC for activation and ethanolamine for deactivation (Biacore amine coupling kit). HBS-EP was used as flow buffer at a rate of 10 μl min-1. 20 μl of sample was injected for 120 s.

human serum albumin [2] = target: T1, human serum albumin; assay: solution binding competition ELISA: phage pre-incubated with 1 µM HSA, captured on coated HSA
Experimental: A competition ELISA was performed to determine the relative binding affinity for the selected phage clones. 96-well Nunc Maxisorp plates were coated with 2 μg/ml HSA in coating buffer at 4° C. Plates were blocked with SuperblockT20 (Pierce) for 1 h at room temperature. The microtiter plates were washed with wash buffer (PBS, 0.05% Tween 20).
Unbound phage was captured by transferring 100 μl of the well mixture to the HSA coated Maxisorp plate and incubating at room temperature for 30 minutes. The plate with captured phage was washed with PBS-0.05% Tween 20 five times. Bound phages were detected with anti-M13 and goat-anti mouse IRDye conjugate. The amount of IRDye bound was measured on Odyssey (LI-COR Biosciences). The ratio of phage binding was calculated by the following equation: fluorescence signal of well with competitor/fluorescence signal of well with no competitor (Table III).

human serum albumin [3] = target: T1, human serum albumin; assay: X-ray co-crystal structure and in silico modelling
Experimental: The crystal structure was determined as follows: the purified proteins were used in crystallization trials employing both, a standard screen of approximately 1200 different conditions, as well as crystallization conditions identified using literature data. […] These conditions were also refined by systematically varying pH or precipitant concentrations. Crystals were obtained via the method of co-crystallization.
Crystals have been flash-frozen and measured at a temperature of 100K. The X-ray diffraction have been collected at the SWISS LIGHT SOURCE (SLS, Villigen, Switzerland) using cryogenic conditions. Data were processed using the programs XDS and XSCALE. The phase information necessary to determine and analyze the structure was obtained by molecular replacement. Subsequent model building and refinement was performed with the software packages CCP4 and COOT. The peptide parameterization was carried out with the program [sequence].

[4] = target: T2, cynomolgus monkey serum albumin (cynomolgus monkey, UniProt A2V9Z4 25-608); assay: SPR, Biacore 3000, cynoSA on CM5 chip, pH5 against pH7
T2 construct: amine-coupled to a CM5 chip; also called CSA; cynoSA
Experimental: (§1) In brief, HSA and cynoSA were amine-coupled to a separate CM5 sensor chip at a density of respectively 1800RU and 1900RU. […] The three buffers used contained 50 mM phosphate, 150 mM NaCl and 0.005% surfactant P and were adjusted to either pH5, pH7 or pH8. Samples were injected at a flow-rate of 45 μL/min, association and dissociation were monitored during 120 sec and 300 sec. Binding curves were subsequently used to calculate the KD, association—and dissociation-rate constants with the BiaEvaluation software.

human serum albumin [5] = target: T1, human serum albumin; assay: SPR, Biacore 3000, HSA on CM5 chip, pH5 against pH7
Experimental: as §1

von Willebrand factor = target: T3, von Willebrand factor (human, UniProt P04275 764-2813); assay: inhibition ELISA: ristocetin-induced binding of plasma vWF to fixed human platelets (glycoprotein Ib), bound vWF detected with anti-VWF-HRP
T3 construct: vWF of the human plasma in which the compounds were diluted; multimeric; also called vWF; VWF

T2 sequence (A2V9Z4 25-608 limits assumed): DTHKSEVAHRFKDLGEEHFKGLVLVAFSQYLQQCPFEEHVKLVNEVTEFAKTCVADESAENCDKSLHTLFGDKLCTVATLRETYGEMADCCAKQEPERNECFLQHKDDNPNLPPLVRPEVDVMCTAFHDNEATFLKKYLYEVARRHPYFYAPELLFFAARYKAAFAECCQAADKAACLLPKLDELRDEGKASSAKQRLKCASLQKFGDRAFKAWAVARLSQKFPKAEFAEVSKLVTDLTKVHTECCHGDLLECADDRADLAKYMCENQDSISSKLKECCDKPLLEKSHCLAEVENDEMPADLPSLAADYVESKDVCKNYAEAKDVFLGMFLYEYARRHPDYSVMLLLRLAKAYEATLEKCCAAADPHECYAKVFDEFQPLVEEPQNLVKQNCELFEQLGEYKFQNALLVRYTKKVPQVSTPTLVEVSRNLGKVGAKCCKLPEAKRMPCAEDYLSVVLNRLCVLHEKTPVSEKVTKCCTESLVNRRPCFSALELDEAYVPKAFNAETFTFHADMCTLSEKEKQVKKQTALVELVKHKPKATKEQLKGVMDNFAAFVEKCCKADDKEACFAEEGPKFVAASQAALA

Kd (human serum albumin [1]): ~1.2 µM | koff (human serum albumin [1]): 0.0093 s⁻¹ | kon (human serum albumin [1]): 7570 M⁻¹ s⁻¹
B1: 2D3-56H5 fusion protein (other)
chain: EVQLVESGGSLVQPGGSLRLSCAASGFTFDDYAMSWVRQVPGKGLEWVSSINWSGTHTDYADSVKGRFTISRNNANNTLYLQMNSLKSEDTAVYYCAKNWRDAGTTWFEKSGSAGQGTQVTVSSGGGGSGGGSAAAFYDDYDVFGGGTPAGGAAAEQKLISEEDLNGAAHHHHHH

Ratio 1 µM/0 µM HSA (human serum albumin [2]): 0.47
Binder: AALYDDYDVFGGGTPVGG (also called 01C7; PMP26A3) [PMP56A3]

Ratio 1 µM/0 µM HSA (human serum albumin [2]): 0.43
Binder: AAFYDDYDVFGGGTPAGG (also called 01G7) [PMP56H5]

Ratio 1 µM/0 µM HSA (human serum albumin [2]): 0.42
Binder: AALYDDYDVFGGGTPAGG [01B3]

binding result (human serum albumin [3]): binds
B2: peptide of SEQ ID NO: 143 (peptide)
peptide: AAARYWDYDVFGGGTPVGGAAA
notes: 56E4 with one additional N-terminal and three C-terminal alanines; used for the co-crystal with HSA; also called peptide based on EXP56E4

fold decrease of affinity at pH5 [4]: ~10 fold | fold decrease of affinity at pH5 (human serum albumin [5]): ~10 fold | IC50 (read off the curve) (von Willebrand factor): ~0.01 µM
B3: 12A2 sv1-AAA-12A2 sv1-9GS-59C2 (VHH)
chain: DVQLVESGGGLVQPGGSLRLSCAASGRTFSYNPMGWFRQAPGKGRELVAAISRTGGSTYYPESVEGRFTISRDNAKRTVYLQMNSLRAEDTAVYYCAAAGVRAEQGRVRTLPSEYTFWGQGTQVTVSSAAAEVQLVESGGGLVQPGGSLRLSCAASGRTFSYNPMGWFRQAPGKGRELVAAISRTGGSTYYPESVEGRFTISRDNAKRTVYLQMNSLRAEDTAVYYCAAAGVRAEQGRVRTLPSEYTFWGQGTQVTVSSGGGGSGGGSRDWDFDVFGGGTPVGG
notes: bivalent anti-vWF Nanobody with one C-terminal 59C2 peptide; also called vWF-0055; vWF 0055
